B1: OR4K15 (parent)
chain: GUUAACGGUCAUAGGCCAUGGAAACUAGGAGCACCAUUUCGCUGCCAGUGAAGAAAUGAACAAAGAAAAUCUGGGCCAGGCAGGCAUCAAAAGAAAUAGUCUUGCGCUCAACCAGAAAGUCUGUAAUCAUUUUAAGGGUA

Variants of B1 are the subject of the data set. Description: self-cleavage, relative activity (ratio to wild type); higher = more cleavage; in vitro, sequencing; the parent is a self-cleaving ribozyme.
As to GUUAACGGCCAUAGGCCAUGGAAACUAGGAGCACCAUUUCGCUGCCAGUGAAGAAAUGAACAAAGAAAAUCUGGGCCAGGCAAGCAUCAAAAGAAAUAGUCUUGCGCUCAACCAGAAAGUCUGUAAUCAUUUUAAGGGUA [U9C G83A], the self-cleavage is 2.33.

Consider GUUAACGGCCAUAGGCCAUGGAAACUAGGAGCACCAUUUCGCUGCCAGUGAAGAAAUGAACAAAGAAAAUCUGGACCAGGCAGGCAUCAAAAGAAAUAGUCUUGCGCUCAACCAGAAAGUCUGUAAUCAUUUUAAGGGUA [U9C G75A], for which the self-cleavage is 0.08.

Take GUUAACGGCCAUAGGCCAUGGAAACUAGGAGCACCAUUUCGCUGCAAGUGAAGAAAUGAACAAAGAAAAUCUGGGCCAGGCAGGCAUCAAAAGAAAUAGUCUUGCGCUCAACCAGAAAGUCUGUAAUCAUUUUAAGGGUA [U9C C46A]: the self-cleavage was determined as 1.74.

With GUUAACGGCCAUAGGCCAUGGAAACUAGGAGCACCAUUUCGCUGCUAGUGAAGAAAUGAACAAAGAAAAUCUGGGCCAGGCAGGCAUCAAAAGAAAUAGUCUUGCGCUCAACCAGAAAGUCUGUAAUCAUUUUAAGGGUA [U9C C46U], the self-cleavage was determined as 1.03.

For the variant GUUAACGGCCAUAGGCCAUGGAAACUAGGAGCACCAUUUCGCUGCCAGUGAAGAAAUGAACAAAGAAAAUCUGGGCCAGGCAGGCAUCAAAAGAAAUAGUCUUGCGCUCAACCAGAAAGUCUGUAAUCAUUUUAUGGGUA [U9C A135U], the self-cleavage is 0.57.

In the case of GUUAACGGCCAUAGGCCAUGGAAACUAGGAGCACCAUUUCGCUGCCAGUGAAGAAAUGAACAAAGAAAAUCUGGGCCAGGCAGGCAUCAAAAGAAAUAGUCUUGCGCUCAACCAGAAAGUCUGUAAUCAUUUUAGGGGUA [U9C A135G], the self-cleavage amounted to 1.5.

For GUUAACGGCCAUAGGCCAUGGAAACUAGGAGCACCAUUUCGCUGCCAGUGAAGAAAUGAACAAAGAAAAUCUGGGCCAGGCAGACAUCAAAAGAAAUAGUCUUGCGCUCAACCAGAAAGUCUGUAAUCAUUUUAAGGGUA [U9C G84A], the self-cleavage stood at 1.54.

For GUUAACGGCCAUAGGCCAUGGAAACUAGGAGCACCAUUUCGCUGCCAGUGAAGAAAUGAACAAAGAAAAUCUGGGCCAGACAGGCAUCAAAAGAAAUAGUCUUGCGCUCAACCAGAAAGUCUGUAAUCAUUUUAAGGGUA [U9C G80A], the self-cleavage amounted to 0.34.

As to GUUAACGGCCAUAGGCCAUGGAAACUAGGAGCAUCAUUUCGCUGCCAGUGAAGAAAUGAACAAAGAAAAUCUGGGCCAGGCAGGCAUCAAAAGAAAUAGUCUUGCGCUCAACCAGAAAGUCUGUAAUCAUUUUAAGGGUA [U9C C34U], the self-cleavage came to 1.01.

Turning to GUUAACGGCCAUAGGCCAUGGAAACUAGGAGCACCAUUUCGCUGCCAGUGAAGAAAUGAACAAAGAAAAUCUGGGACAGGCAGGCAUCAAAAGAAAUAGUCUUGCGCUCAACCAGAAAGUCUGUAAUCAUUUUAAGGGUA [U9C C76A], the self-cleavage worked out at 0.07.

For GUUAACGGCCAUAGGCCAUGGAAACUAGGAGCACCAUUUCGCUGCCAGUGAAGAAAUGAACAAAGAAAAUCUGGGUCAGGCAGGCAUCAAAAGAAAUAGUCUUGCGCUCAACCAGAAAGUCUGUAAUCAUUUUAAGGGUA [U9C C76U], the self-cleavage came out at 0.15.

As to GUUAACGGCCAUAGGCCAUGGAAACUAGGAGCACCAUUUCGCUGCCAGUGAAGAAAUGAACAAAGAAAAUCUGGGCUAGGCAGGCAUCAAAAGAAAUAGUCUUGCGCUCAACCAGAAAGUCUGUAAUCAUUUUAAGGGUA [U9C C77U], the self-cleavage was found to be 1.18.

With GUUAACGGCCAUAGGCCAUGGAAACUAGGAGCACCAUUUCGCUGCCAGUGAAGAAAUGAACAAAGAAAAUCUGGGCCAGGCAGGCAUUAAAAGAAAUAGUCUUGCGCUCAACCAGAAAGUCUGUAAUCAUUUUAAGGGUA [U9C C88U], the self-cleavage worked out at 1.34.

As to GUUAACGGCCAUAGACCAUGGAAACUAGGAGCACCAUUUCGCUGCCAGUGAAGAAAUGAACAAAGAAAAUCUGGGCCAGGCAGGCAUCAAAAGAAAUAGUCUUGCGCUCAACCAGAAAGUCUGUAAUCAUUUUAAGGGUA [U9C G15A], the self-cleavage is 1.47.

Turning to GUUAACGGCCAUAGGCCAUGGAAACUAGGAGCACCAUUUCGCUGCCAGUGAAGAAAUAAACAAAGAAAAUCUGGGCCAGGCAGGCAUCAAAAGAAAUAGUCUUGCGCUCAACCAGAAAGUCUGUAAUCAUUUUAAGGGUA [U9C G58A], the self-cleavage stood at 1.29.

As for GUUAACGGCCAUAGGCCAUGGAAACUAGGAGCACCAUUUCGCUGCCAGUGAAGAAAUGAACAAAGAAAAUCUGGGCCAGGCAGGCAUCAAAAGAAAUAGUCUUGCGCUCAAACAGAAAGUCUGUAAUCAUUUUAAGGGUA [U9C C112A], the self-cleavage amounted to 0.03.

For GUUAACGGCCAUAGGCCAUGGAAACUAGGAGCACCAUUUCGCUGCCAGUGAAGAAAUGAACAAAGAAAAUCUGGGCCAGGCAGGCAUCAAAAGAAAUAUUCUUGCGCUCAACCAGAAAGUCUGUAAUCAUUUUAAGGGUA [U9C G99U], the self-cleavage turned out to be 0.63.

Consider GUUAACGGCCAUAGGCCAUGGAAACUAGGAGCACCAUUUAGCUGCCAGUGAAGAAAUGAACAAAGAAAAUCUGGGCCAGGCAGGCAUCAAAAGAAAUAGUCUUGCGCUCAACCAGAAAGUCUGUAAUCAUUUUAAGGGUA [U9C C40A], for which the self-cleavage was 1.25.

On to GUUAACGGCCAUAGGCCAUGGAAACUAGGAGCACCAUUUCGCUGCCAGUGAAGAAAUGAACAAAGAAAAUCUGGGCCAGGCAGGCAUCAAAAGAAAUAGUCUUGCGCUCAACCAGAAAGUCUGUAAUCAUUUUAAGGGUG [U9C A140G], for which the self-cleavage was found to be 1.33.

Turning to GUUAACGGCCAUAGGCCAUGGAAACUAGUAGCACCAUUUCGCUGCCAGUGAAGAAAUGAACAAAGAAAAUCUGGGCCAGGCAGGCAUCAAAAGAAAUAGUCUUGCGCUCAACCAGAAAGUCUGUAAUCAUUUUAAGGGUA [U9C G29U], the self-cleavage came to 2.61.

In the case of GUUAACGGCCAUAGGCCAUGGAAACUAGGAGCACCAUUUCGCUGUCAGUGAAGAAAUGAACAAAGAAAAUCUGGGCCAGGCAGGCAUCAAAAGAAAUAGUCUUGCGCUCAACCAGAAAGUCUGUAAUCAUUUUAAGGGUA [U9C C45U], the self-cleavage stood at 1.07.
